Laboratory results from US20110091386A1 (GENE TECHNO SCIENCE, published 2011).

Legend:
peptide CGRGDSLAYGLR = molecular target: T1, peptide CGRGDSLAYGLR (murine, N-terminal Cys coupled to BSA via EMCS); assay: ELISA, BSA-coupled peptide coated at 10 ug/ml, HRP anti-murine IgG, A490
T1 construct: Synthetic peptide, BSA conjugate on the ELISA plate
T1 peptide: CGRGDSLAYGLR

[1] = molecular target: T2, hOPN5 peptide CVDTYDGRGDSVVYGLRS conjugated to bovine serum albumin (human, N-terminal Cys coupled to BSA (via EMCS in section 6.2)); assay: as above
T2 construct: also called hOPN5-BSA; hOPN-BSA
T2 peptide: CVDTYDGRGDSVVYGLRS

peptide CGDSLAYG = molecular target: T3, peptide CGDSLAYG (murine, N-terminal Cys coupled to BSA via EMCS); assay: as above
T3 construct: Synthetic peptide, BSA conjugate on the ELISA plate
T3 peptide: CGDSLAYG

peptide CGDSLAYGLR = molecular target: T4, peptide CGDSLAYGLR (murine, N-terminal Cys coupled to BSA via EMCS); assay: as above
T4 peptide: CGDSLAYGLR

[2] = molecular target: T5, mOPN5 peptide CVDVPNGRGDSLAYGLR (murine, N-terminal Cys coupled to BSA via EMCS (ELISA of section 6.2)); assay: as above
T5 construct: BSA conjugate in section 6.2; 'antigen peptide solid phase' in the hybridoma screen of section 6.1; also called antigen peptide
T5 peptide: CVDVPNGRGDSLAYGLR

peptide CGRGDS [3] = molecular target: T6, peptide CGRGDS (human and murine, N-terminal Cys coupled to BSA via EMCS); assay: ELISA, BSA-coupled peptide coated at 10 ug/ml
T6 construct: Synthetic peptide, BSA conjugate on the ELISA plate
T6 peptide: CGRGDS
Excerpt: (§1) Peptides of amino acid sequence of […] (mOPN1) (SEQ ID NO:73), […] (mOPN5) (SEQ ID NO:71), […] (SEQ ID NO:74), CPNGRGD (SEQ ID NO:75), […] (SEQ ID NO: 76) […] (SEQ ID NO: 77), […] (SEQ ID NO:78) and […] (SEQ ID NO:72) which include murine OPN derived partial peptide, a peptide of amino acid sequence […] (SEQ ID NO:79) and […] (SEQ ID NO:80) which include human OPN derived partial peptide, and a peptide of amino acid sequence CGRGDS (SEQ ID NO:81) which include common peptide sequence of human OPN and murine OPN were coupled to BSA (Sigma corporation) via EMCS (Dojin) and used for ELISA.
(§2) A 96 well plate was immobilized with peptides (10 μg/ml) or proteins (5 μg/ml) by cultivating at 37° C. for an hour, blocked with 0.1% BSA/PBS/0.05% NaN₃ solution, and then reacted with various concentrations of antibodies at 37° C. for an hour. Next, the plate was reacted with HRP labeled anti-murine IgG antibody (Jackson ImmunoResearch Laboratories, Inc.) as secondary antibody at 37° C. for 30 minutes, added OPD as chromogen, added 1N H₂SO₄ to stop the reaction, and then detected absorbance at 490 nm.

peptide CPNGRGD [4] = molecular target: T7, peptide CPNGRGD (murine, N-terminal Cys coupled to BSA via EMCS); assay: ELISA, BSA-coupled peptide coated at 10 ug/ml
T7 construct: Synthetic peptide, BSA conjugate on the ELISA plate
T7 peptide: CPNGRGD
Excerpt: as §1, §2

peptide CVDVPNGRGDS [5] = molecular target: T8, peptide CVDVPNGRGDS (murine, N-terminal Cys coupled to BSA via EMCS); assay: ELISA, BSA-coupled peptide coated at 10 ug/ml
T8 construct: Synthetic peptide, BSA conjugate on the ELISA plate
T8 peptide: CVDVPNGRGDS
Excerpt: as §1, §2

human osteopontin = molecular target: T9, human osteopontin (human, UniProt P10451 17-314); assay: ELISA, protein coated at 5 ug/ml, HRP anti-murine IgG, A490
T9 construct: mature; Secreted recombinant protein; also called hOPN; human OPN
T9 sequence (P10451 17-314): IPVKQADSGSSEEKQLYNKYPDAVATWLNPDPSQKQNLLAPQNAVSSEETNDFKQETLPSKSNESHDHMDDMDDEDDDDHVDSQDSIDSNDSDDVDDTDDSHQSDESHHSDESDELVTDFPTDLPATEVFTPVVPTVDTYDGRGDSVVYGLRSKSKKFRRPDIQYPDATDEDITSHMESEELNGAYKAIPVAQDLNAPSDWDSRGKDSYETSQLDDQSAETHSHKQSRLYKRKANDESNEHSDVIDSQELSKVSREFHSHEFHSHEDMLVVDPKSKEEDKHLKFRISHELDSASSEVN
Procedure: as §2, with “Binding ability of the monoclonal antibodies 33E10 and 35B6 to ECM proteins was detected by ELISA using 96 well plate immobilized with hOPN, mOPN, FN, VN or laminin obtained above. A 96” for “A 96”

murine osteopontin = molecular target: T10, murine osteopontin (murine, UniProt P10923 17-294); assay: as above
T10 construct: mature; Secreted recombinant protein; also called mOPN; murine OPN
T10 sequence (P10923 17-294): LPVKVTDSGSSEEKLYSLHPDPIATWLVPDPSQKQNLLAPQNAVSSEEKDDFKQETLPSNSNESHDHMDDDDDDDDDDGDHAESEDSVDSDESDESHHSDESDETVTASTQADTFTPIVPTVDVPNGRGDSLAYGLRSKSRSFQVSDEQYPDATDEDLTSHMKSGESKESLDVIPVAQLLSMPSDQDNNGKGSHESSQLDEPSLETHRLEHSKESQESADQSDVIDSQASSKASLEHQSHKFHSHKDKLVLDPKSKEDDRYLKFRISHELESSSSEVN
Procedure: as §2, with “Binding ability of the monoclonal antibodies 33E10 and 35B6 to ECM proteins was detected by ELISA using 96 well plate immobilized with hOPN, mOPN, FN, VN or laminin obtained above. A 96” for “A 96”

[6] = molecular target: T2, hOPN5 peptide CVDTYDGRGDSVVYGLRS …; assay: ELISA, hOPN5-BSA coated at 1 ug/ml, HRP anti-human gamma chain, A405
Procedure: The affinity of humanized 35B6 IgG1/κ was compared to that of chimeric 35B6 IgG1/κ by ELISA. As an antigen, synthetic oligopeptide ([…] (SEQ ID NO:79) conjugated to bovine serum albumin (hOPN5-BSA) was used. In a typical experiment, an ELISA plate was coated with 100 μl/well of 1 μg/ml hOPN-BSA in PBS overnight at 4° C., washed with Wash Buffer, and blocked with 300 μl/well of Blocking Buffer for 1 hr at room temperature. After washing with Wash Buffer, 100 μl/well of samples appropriately diluted in ELISA Buffer were applied to the ELISA plate. After incubating the ELISA plate overnight at 4° C. and washing with Wash Buffer, bound antibodies were detected using 100 μl/well of 1/2,000-diluted HRP-conjugated goat anti-human γ chain polyclonal antibody (SouthernBiotech). After incubating for 1 hr at room temperature and washing with Wash Buffer, color development was performed by adding 100 μl/well of ABTS substrate and stopped with 100 μl/well of 2% oxalic acid. Absorbance was read at 405 nm. As shown in FIG. 41A-41B, the binding of humanized 35B6 IgG1/κ to hOPN5-BSA was similar to (FIG. 41A) or indistinguishable from (FIG. 41B) that of chimeric 35B6 IgG1/κ.

peptide CGRGDS [7] = molecular target: T6, peptide CGRGDS; assay: ELISA, BSA-coupled peptide coated at 10 ug/ml, HRP anti-murine IgG, A490
peptide CPNGRGD [8] = molecular target: T7, peptide CPNGRGD; assay: as above
peptide CVDVPNGRGDS [9] = molecular target: T8, peptide CVDVPNGRGDS; assay: as above
peptide CSVVYGLR = molecular target: T11, peptide CSVVYGLR (human, N-terminal Cys coupled to BSA via EMCS); assay: ELISA, BSA-coupled peptide coated at 10 ug/ml
T11 construct: Synthetic peptide, BSA conjugate on the ELISA plate
T11 peptide: CSVVYGLR
Excerpt: as §1, §2

peptide CSLAYGLR = molecular target: T12, peptide CSLAYGLR (murine, N-terminal Cys coupled to BSA via EMCS); assay: ELISA, BSA-coupled peptide coated at 10 ug/ml
T12 construct: Synthetic peptide, BSA conjugate on the ELISA plate
T12 peptide: CSLAYGLR
Excerpt: as §1, §2

human vitronectin = molecular target: T13, human vitronectin (human, UniProt P04004 20-478); assay: ELISA, protein coated at 5 ug/ml, HRP anti-murine IgG, A490
T13 construct: Bought protein; also called VN
T13 sequence (P04004 20-478 limits assumed): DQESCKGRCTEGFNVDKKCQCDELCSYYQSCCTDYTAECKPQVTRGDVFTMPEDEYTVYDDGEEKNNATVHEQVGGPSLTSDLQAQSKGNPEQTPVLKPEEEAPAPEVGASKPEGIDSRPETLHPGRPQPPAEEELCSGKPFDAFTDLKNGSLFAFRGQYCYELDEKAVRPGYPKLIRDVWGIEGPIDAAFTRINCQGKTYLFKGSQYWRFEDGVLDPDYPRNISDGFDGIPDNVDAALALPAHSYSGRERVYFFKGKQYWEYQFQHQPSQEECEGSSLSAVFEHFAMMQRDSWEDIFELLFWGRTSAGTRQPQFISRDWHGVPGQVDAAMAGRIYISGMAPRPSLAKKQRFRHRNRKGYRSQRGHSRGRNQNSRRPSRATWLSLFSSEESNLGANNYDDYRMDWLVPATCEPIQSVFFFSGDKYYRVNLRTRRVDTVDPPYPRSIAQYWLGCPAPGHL
Procedure: as §2, with “Binding ability of the monoclonal antibodies 33E10 and 35B6 to ECM proteins was detected by ELISA using 96 well plate immobilized with hOPN, mOPN, FN, VN or laminin obtained above. A 96” for “A 96”

B1: mouse anti-RGD monoclonal antibody 35B6 (FERM BP-10441) (antibody, mouse IgG1, V domains shown)
VH: QVQLQQPGTELVKPGASVKLSCKASGYTFTNYWMHWVKQRPGQGLEWIGNINPRNGDSNYNEKFRSKASLTVDKSSSTVYMQLSSLTSEDSAVYYCARGYFDVWGTGTTVTVSS
VL: DIKMTQSPSSMYASLGERVSITCKASQDINSYLSWFQQKSGKSPKTLIYRANRLVDGVPSRFSGSGSGQDFSLTISSLEYEDMGIYYCLQYDEFPFTFGSGTKLEIK
notes: Mouse IgG1 from hybridoma
B1: binds (peptide CGRGDSLAYGLR); binds [1]; binds (peptide CGDSLAYG). B1: binds (peptide CGDSLAYGLR); binds [2]; no binding (peptide CGRGDS [3]). B1: no binding (peptide CPNGRGD [4]); no binding (peptide CVDVPNGRGDS [5]); binds (human osteopontin). B1: binds (murine osteopontin).

B2: chimeric 35B6 IgG1/kappa antibody (antibody, V domains shown)
VH: B1 VH
VL: B1 VL
notes: Tested as culture supernatant of transiently transfected HEK293 cells; also called Ch35B6
B2: binds [6].

B3: mouse anti-RGD monoclonal antibody 33E10 (FERM BP-10440) (antibody, mouse IgG1, V domains shown)
VH: EVKLVESGGGLVQPGGSLSLSCAASGFTFTDYYMIWVRQPPGKALEWLGFIRNKANGYTTEYSASVKGRFTISRDNSQSILYLQMNALRAEDSATYYCARGAYWGQGTLVTVSA
VL: DVLMTQTPLSLPVSLGDQASISCRSSQSIVHSNGNTYLEWYLQKPGQSPKLLIYRVSNRFSGVPDRFSGSGSGTDFTLKISRVEAEDLGVYYCFQGSFVPWTFGGGTKLEIK
notes: Mouse IgG1 from hybridoma, purified on an antigen peptide column
B3: binds [1]; binds (peptide CGRGDS [7]); binds [2]. B3: binds (peptide CPNGRGD [8]); binds (peptide CVDVPNGRGDS [9]); no binding (peptide CSVVYGLR). B3: no binding (peptide CSLAYGLR); binds (human vitronectin); binds (human osteopontin). B3: binds (murine osteopontin).

B4: humanized 35B6 IgG1/kappa antibody (antibody, V domains shown)
VH: QVQLVQSGAEVKKPGASVKVSCKASGYTFTNYWMHWVRQAPGQGLEWIGNINPRNGDSNYNEKFRSKASLTVDKSTSTVYMELSSLRSEDTAVYYCARGYFDVWGQGTTVTVSS
VL: DIQMTQSPSSLSASVGDRVTITCKASQDINSYLSWFQQKPGKAPKTLIYRANRLVDGVPSKFSGSGSGQDFTLTISSLQPEDFATYYCLQYDEFPFTFGQGTKLEIK
notes: Tested as culture supernatant of transiently transfected HEK293 cells; also called Hu35B6
B4: binds [6].
